How the values were obtained:
Assay in all cases: competition ELISA, peptide in solution vs coated Ara h 2
Peptide 2 = target: T1, Peptide 2 (peanut)
T1 construct: also called linear Ara h 2 peptide 2
T1 peptide: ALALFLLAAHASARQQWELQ
Procedure: (§1) A competition ELISA was used to evaluate binding of exemplary anti-peanut antibodies of the present invention to linear Ara h 2 epitopes. Serial dilutions of linear Ara h 2 epitopes (100 μM down to 0.19 nM; peptides with a length of 20 amino acids and an overlap of 12 amino acids between the peptides) were pre-incubated with exemplary anti-peanut antibodies ([…]) for 1 hour at room temperature. The pre-incubated antibody-epitope mixtures were subsequently incubated on plates coated with full length Ara h 2 (coating overnight at 4° C. with 0.05 μg/ml Ara h 2 in PBS, followed by wash out and blocking with 2% BSA in PBS). The plates were subsequently washed and binding of MAbs to Ara h 2 was detected HRP-conjugated goat anti human Fc-gamma-specific antibody (Jackson ImmunoResearch, West Grove, Pa., USA) followed by measurement of the HRP activity using a tetramethylbenzidine substrate solution (TMB, Sigma-Aldrich Chemie GmbH, Buchs, Switzerland). As may be seen from Table 5, exemplary anti-peanut allergen antibody 32B10 binds to different linear Ara h 2 epitopes than 12G10 and 37D5.

Peptide 17 = target: T2, Peptide 17 (peanut)
T2 construct: also called linear Ara h 2 peptide 17
T2 peptide: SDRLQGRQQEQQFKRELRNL
Procedure: as §1

Peptide 15 = target: T3, Peptide 15 (peanut)
T3 construct: also called linear Ara h 2 peptide 15
T3 peptide: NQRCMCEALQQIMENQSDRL
Procedure: as §1

Peptide 5 = target: T4, Peptide 5 (peanut)
T4 construct: also called linear Ara h 2 peptide 5
T4 peptide: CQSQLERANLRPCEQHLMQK
Procedure: as §1

Peptide 4 = target: T5, Peptide 4 (peanut)
T5 construct: also called linear Ara h 2 peptide 4
T5 peptide: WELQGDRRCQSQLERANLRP
Procedure: as §1

Peptide 18 = target: T6, Peptide 18 (peanut)
T6 construct: also called linear Ara h 2 peptide 18
T6 peptide: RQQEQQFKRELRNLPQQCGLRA
Procedure: as §1

Peptide 12 = target: T7, Peptide 12 (peanut)
T7 construct: also called linear Ara h 2 peptide 12
T7 peptide: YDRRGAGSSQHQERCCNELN
Procedure: as §1

Peptide 9 = target: T8, Peptide 9 (peanut)
T8 construct: also called linear Ara h 2 peptide 9
T8 peptide: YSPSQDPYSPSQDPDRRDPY
Procedure: as §1

Peptide 1 = target: T9, Peptide 1 (peanut)
T9 construct: 20-mer of Ara h 2, overlap of 12 with its neighbours; also called linear Ara h 2 peptide 1
T9 peptide: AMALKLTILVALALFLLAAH
Procedure: as §1

Peptide 16 = target: T10, Peptide 16 (peanut)
T10 construct: also called linear Ara h 2 peptide 16
T10 peptide: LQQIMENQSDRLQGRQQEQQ
Procedure: as §1

Peptide 10 = target: T11, Peptide 10 (peanut)
T11 construct: also called linear Ara h 2 peptide 10
T11 peptide: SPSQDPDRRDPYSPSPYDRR
Procedure: as §1

Peptide 13 = target: T12, Peptide 13 (peanut)
T12 construct: also called linear Ara h 2 peptide 13
T12 peptide: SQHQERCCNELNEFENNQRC
Procedure: as §1

Peptide 6 = target: T13, Peptide 6 (peanut)
T13 construct: also called linear Ara h 2 peptide 6
T13 peptide: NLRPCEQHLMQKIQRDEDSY
Procedure: as §1

Peptide 11 = target: T14, Peptide 11 (peanut)
T14 construct: also called linear Ara h 2 peptide 11
T14 peptide: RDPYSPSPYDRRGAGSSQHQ
Procedure: as §1

Peptide 3 = target: T15, Peptide 3 (peanut)
T15 construct: also called linear Ara h 2 peptide 3
T15 peptide: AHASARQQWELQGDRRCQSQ
Procedure: as §1

Peptide 19 = target: T16, Peptide 19 (peanut)
T16 construct: also called linear Ara h 2 peptide 19
T16 peptide: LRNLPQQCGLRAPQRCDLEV
Procedure: as §1

Peptide 8 = target: T17, Peptide 8 (peanut)
T17 construct: also called linear Ara h 2 peptide 8
T17 peptide: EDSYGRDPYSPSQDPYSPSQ
Procedure: as §1

Peptide 20 = target: T18, Peptide 20 (peanut)
T18 construct: also called linear Ara h 2 peptide 20
T18 peptide: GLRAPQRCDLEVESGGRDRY
Procedure: as §1

Peptide 14 = target: T19, Peptide 14 (peanut)
T19 construct: also called linear Ara h 2 peptide 14
T19 peptide: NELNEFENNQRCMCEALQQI
Procedure: as §1

Peptide 7 = target: T20, Peptide 7 (peanut)
T20 construct: also called linear Ara h 2 peptide 7
T20 peptide: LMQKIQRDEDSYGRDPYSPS
Procedure: as §1

B1: h12G10 (antibody, human IgG1, V domains shown)
VH: EVQLLESGGRLLRPGGSLSLSCVASGFYFGDFGMSWVRQVPGKGLEWVSGIDWSGRSTGYVDSMKGRLTISRDNDKSSLYLQMNDLRGEDTAVYYCARVGRLCSGDSCDSMGAFDLWGQGTMVTVSS
VL: DIQLTQSPSTLSASIGDSVTITCRASQNIDNWLAWYQQKPGKAPRLLIYKASSLGSGVSSKFRGSGFGTEFTLTITSLQPDDFATYYCQKSNGYSRTFGQGTKVDIK
notes: Recombinant human IgG; also called hMAb 12G10
binding result (Peptide 2): no binding (tested: 100 µM)
binding result (Peptide 17): no binding (tested: 100 µM)
binding result (Peptide 15): no binding (tested: 100 µM)
binding result (Peptide 5): no binding (tested: 100 µM)
binding result (Peptide 4): no binding (tested: 100 µM)
binding result (Peptide 18): no binding (tested: 100 µM)
binding result (Peptide 12): no binding (tested: 100 µM)
binding result (Peptide 9): binds
binding result (Peptide 1): no binding (tested: 100 µM)
binding result (Peptide 16): no binding (tested: 100 µM)
binding result (Peptide 10): binds
binding result (Peptide 13): no binding (tested: 100 µM)
binding result (Peptide 6): no binding (tested: 100 µM)
binding result (Peptide 11): binds
binding result (Peptide 3): no binding (tested: 100 µM)
binding result (Peptide 19): no binding (tested: 100 µM)
binding result (Peptide 8): binds
binding result (Peptide 20): no binding (tested: 100 µM)
binding result (Peptide 14): no binding (tested: 100 µM)
binding result (Peptide 7): no binding (tested: 100 µM)

B2: h32B10 (antibody, V domains shown)
VH: QVQLVQSGAEVKKPGASVKVSCRASGYIFRNFDINWVRQATGQGLEWMGWMSPKSGDTGYAQKFQGRVTMTRDTSINTAYMELSSLTSEDSAVYYCARGVDGTNWGQGTRVTVSS
VL: DIVMTQSPDSLGVSLGERATISCKSSQSILDNSNNKNFIAWFQQKPGQPPKLLIYWASARESGVPDRFSGSGSGTEFTLTINSLQAEDVAVYYCYQYYSTPHTFGQGTKLDLR
notes: Recombinant human IgG; also called hMAb 32B10
binding result (Peptide 2): no binding (tested: 100 µM)
binding result (Peptide 17): no binding (tested: 100 µM)
binding result (Peptide 15): no binding (tested: 100 µM)
binding result (Peptide 5): no binding (tested: 100 µM)
binding result (Peptide 4): binds
binding result (Peptide 18): no binding (tested: 100 µM)
binding result (Peptide 12): no binding (tested: 100 µM)
binding result (Peptide 9): no binding (tested: 100 µM)
binding result (Peptide 1): no binding (tested: 100 µM)
binding result (Peptide 16): no binding (tested: 100 µM)
binding result (Peptide 10): no binding (tested: 100 µM)
binding result (Peptide 13): no binding (tested: 100 µM)
binding result (Peptide 6): no binding (tested: 100 µM)
binding result (Peptide 11): no binding (tested: 100 µM)
binding result (Peptide 3): no binding (tested: 100 µM)
binding result (Peptide 19): no binding (tested: 100 µM)
binding result (Peptide 8): no binding (tested: 100 µM)
binding result (Peptide 20): no binding (tested: 100 µM)
binding result (Peptide 14): no binding (tested: 100 µM)
binding result (Peptide 7): no binding (tested: 100 µM)

B3: h37D5 (antibody, V domains shown)
VH: EEQLVESGGRLLRPGESLSLSCAAVGFNFGDFGMAWVRQPPGKGLEWVAGINWSGHSTGFVDSMKGRLTISRDSAKSSLFLQMNSLRGEDTAVYYCARVGRLCSGDICDSMGAFDLWGQGTMVTVSS
VL: DIQMTQSPSTLSASIGDRVTITCRASQTIDNWLAWYQQRPGKAPKLLIYQASSLQSGVSSRFRGSGSGTEFTLTITSLQPDDFATYYCQKSNGYSRTFGQGTKVEIK
notes: Recombinant human IgG; also called hMAb 37D5
binding result (Peptide 2): no binding (tested: 100 µM)
binding result (Peptide 17): no binding (tested: 100 µM)
binding result (Peptide 15): no binding (tested: 100 µM)
binding result (Peptide 5): no binding (tested: 100 µM)
binding result (Peptide 4): no binding (tested: 100 µM)
binding result (Peptide 18): no binding (tested: 100 µM)
binding result (Peptide 12): no binding (tested: 100 µM)
binding result (Peptide 9): binds
binding result (Peptide 1): no binding (tested: 100 µM)
binding result (Peptide 16): no binding (tested: 100 µM)
binding result (Peptide 10): binds
binding result (Peptide 13): no binding (tested: 100 µM)
binding result (Peptide 6): no binding (tested: 100 µM)
binding result (Peptide 11): binds
binding result (Peptide 3): no binding (tested: 100 µM)
binding result (Peptide 19): no binding (tested: 100 µM)
binding result (Peptide 8): binds
binding result (Peptide 20): no binding (tested: 100 µM)
binding result (Peptide 14): no binding (tested: 100 µM)
binding result (Peptide 7): no binding (tested: 100 µM)

B4: h4B2 (antibody, V domains shown)
VH: QVQLQEAGPRLVKPSQTLSVTCTVSGASITIGGYYWSWIRQHPGKGLEWMGYIYSNGRTYYNPSLKSRIAMSIDTSKNQFSLKLTSVTAADTAIYFCAREAWETPLWGQGTLITVSS
VL: DIQMTQSPSSLSASVGDRVTITCQANQDIVNSLNWFQHKPGTAPKVLIYDASKLETGVPSRFSGSGSGTHFTFTISGLQPEDFATYFCQQYENLPHTFGQGTKLEIR
notes: Recombinant human IgG; also called hMAb 4B2
binding result (Peptide 2): no binding (tested: 100 µM)
binding result (Peptide 17): no binding (tested: 100 µM)
binding result (Peptide 15): no binding (tested: 100 µM)
binding result (Peptide 5): no binding (tested: 100 µM)
binding result (Peptide 4): no binding (tested: 100 µM)
binding result (Peptide 18): no binding (tested: 100 µM)
binding result (Peptide 12): no binding (tested: 100 µM)
binding result (Peptide 9): no binding (tested: 100 µM)
binding result (Peptide 1): no binding (tested: 100 µM)
binding result (Peptide 16): no binding (tested: 100 µM)
binding result (Peptide 10): no binding (tested: 100 µM)
binding result (Peptide 13): no binding (tested: 100 µM)
binding result (Peptide 6): no binding (tested: 100 µM)
binding result (Peptide 11): no binding (tested: 100 µM)
binding result (Peptide 3): no binding (tested: 100 µM)
binding result (Peptide 19): no binding (tested: 100 µM)
binding result (Peptide 8): no binding (tested: 100 µM)
binding result (Peptide 20): no binding (tested: 100 µM)
binding result (Peptide 14): no binding (tested: 100 µM)
binding result (Peptide 7): no binding (tested: 100 µM)
